# US20200399712A1, “COMPOSITIONS AND METHODS FOR THE DIAGNOSIS AND DETECTION OF TUMORS AND CANCER PROGNOSIS” (priority 2018, published 2020)
# B1: BR E1-6: HPV-16 E1 region primer/probe set, SEQ ID NO: 43-45 (nucleic acid)
# DNA 1: ATGCACAATTGGCAGACACTAA
# DNA 2: AATCCTTTACAATTTTTGCCTGTGA
# DNA 3: AGTAATGCAAGTGCCTTTCTAAAAAGTA
# modifications: chemistry not given here
# Legend:
# HPV-16 genome = assay: qPCR sensitivity against HPV-16 copy number (known-copy HPV-16 DNA among 10 ng normal human DNA); conditions: for reaction under 30 copies of HPV-16 genome: among 10 ng normal DNA, triplicate qPCR
# Excerpt: All samples were run in triplicates.
# To seek the most promising primer-probe set in the viewpoint of sensitivity, Applicants evaluated the sensitivity analysis for these candidate primer-probe sets. […] Therefore, the sensitivity of E6 (FIG. 3A) and E7 (FIG. 3B) was also 30 copies. […] The candidate primer-probe sets were the “Min-4” (FIG. 3C), “Min-5” (FIG. 3D), “Min-6” (FIG. 3E), “Max-10” (FIG. 3F), “E6-11” (FIG. 3G), “E6-13” (FIG. 3H), respectively.
# In addition, Applicants performed sensitivity analysis to identify the most sensitive primer/probe set from among the candidate sets.
# To validate the function of primer/probe sets, Applicants calculated the slope of delta Rn against cycle threshold for HPV-16 copy number detection from defined HPV copy number DNA derived from CaSki cell line.
# HPV-16 = assay: qPCR sensitivity against HPV-HNSCC tumor samples diluted among 10 ng normal human DNA
# [1] = samples tested 3 times, 10 ng DNA from healthy individual
# [2] = tumor DNA dilution, fraction of 32 samples
molecule,measurement,setting,value
B1,reaction under 30 copies of HPV-16 genome,HPV-16 genome,consistently amplified
same,reaction under 30 copies of HPV-16 genome,HPV-16 genome; listed as Min-6,react consistently
same,number of reactions against 10 HPV-16 copies,HPV-16 genome; [1],2 reactions
same,number of reactions under 30 HPV-16 copies,HPV-16 genome; [1],3 reactions
same,sensitivity under 100 cells,HPV-16; 32 HPV-HNSCC tumor samples,87.5%
same,sensitivity under single cells,"HPV-16; 32 HPV-HNSCC tumor samples, 6.6 pg DNA",15.6%
same,sensitivity under 10 cells,"HPV-16; 32 HPV-HNSCC tumor samples, 66 pg DNA",62.5%
same,Threshold of tumor cell numbers for HPV-16 detection,HPV-16; Sample # 1,150.0 tumor cells
same,Threshold of tumor cell numbers for HPV-16 detection,HPV-16; Sample # 2,150.0 tumor cells
same,Threshold of tumor cell numbers for HPV-16 detection,HPV-16; Sample # 3,30.0 tumor cells
same,Threshold of tumor cell numbers for HPV-16 detection,HPV-16; Sample # 4,30.0 tumor cells
same,Threshold of tumor cell numbers for HPV-16 detection,HPV-16; Sample # 5,30.0 tumor cells
same,Threshold of tumor cell numbers for HPV-16 detection,HPV-16; Sample # 6,50.0 tumor cells
same,Threshold of tumor cell numbers for HPV-16 detection,HPV-16; Sample # 7,150.0 tumor cells
same,Threshold of tumor cell numbers for HPV-16 detection,HPV-16; Sample # 8,15.0 tumor cells
same,Threshold of tumor cell numbers for HPV-16 detection,HPV-16; Sample # 9,30.0 tumor cells
same,Threshold of tumor cell numbers for HPV-16 detection,HPV-16; Sample # 10,6.0 tumor cells
same,Threshold of tumor cell numbers for HPV-16 detection,HPV-16; Sample # 11,6.0 tumor cells
same,Threshold of tumor cell numbers for HPV-16 detection,HPV-16; Sample # 12,30.0 tumor cells
same,Threshold of tumor cell numbers for HPV-16 detection,HPV-16; Sample # 13,6.0 tumor cells
same,Threshold of tumor cell numbers for HPV-16 detection,HPV-16; Sample # 14,6.0 tumor cells
same,Threshold of tumor cell numbers for HPV-16 detection,HPV-16; Sample # 15,6.0 tumor cells
same,Threshold of tumor cell numbers for HPV-16 detection,HPV-16; Sample # 16,30.0 tumor cells
same,Threshold of tumor cell numbers for HPV-16 detection,HPV-16; Sample # 17,6.0 tumor cells
same,Threshold of tumor cell numbers for HPV-16 detection,HPV-16; Sample # 18,1.2 tumor cells
same,Threshold of tumor cell numbers for HPV-16 detection,HPV-16; Sample # 19,1.2 tumor cells
same,Threshold of tumor cell numbers for HPV-16 detection,HPV-16; Sample # 20,6.0 tumor cells
same,Threshold of tumor cell numbers for HPV-16 detection,HPV-16; Sample # 21,1.2 tumor cells
same,Threshold of tumor cell numbers for HPV-16 detection,HPV-16; Sample # 22,0.3 tumor cells
same,Threshold of tumor cell numbers for HPV-16 detection,HPV-16; Sample # 23,1.2 tumor cells
same,Threshold of tumor cell numbers for HPV-16 detection,HPV-16; Sample # 24,1.2 tumor cells
same,Threshold of tumor cell numbers for HPV-16 detection,HPV-16; Sample # 25,1.2 tumor cells
same,Threshold of tumor cell numbers for HPV-16 detection,HPV-16; Sample # 26,0.3 tumor cells
same,Threshold of tumor cell numbers for HPV-16 detection,HPV-16; Sample # 27,0.6 tumor cells
same,Threshold of tumor cell numbers for HPV-16 detection,HPV-16; Sample # 28,0.6 tumor cells
same,Threshold of tumor cell numbers for HPV-16 detection,HPV-16; Sample # 29,3.0 tumor cells
same,Threshold of tumor cell numbers for HPV-16 detection,HPV-16; Sample # 30,150.0 tumor cells
same,Threshold of tumor cell numbers for HPV-16 detection,HPV-16; Sample # 31,0.6 tumor cells
same,Threshold of tumor cell numbers for HPV-16 detection,HPV-16; Sample # 32,9.0 tumor cells
same,"Sensitivity, 1 cell",HPV-16; [2],0.156
same,"Sensitivity, 3 cells",HPV-16; [2],0.344
same,"Sensitivity, 10 cells",HPV-16; [2],0.625
same,"Sensitivity, 30 cells",HPV-16; [2],0.844
same,"Sensitivity, 100 cells",HPV-16; [2],0.875
